From the DeepSol protein solubility set

Assay: soluble on expression in E. coli; label from the status in PepcDB or PDB records

Sequence	soluble on expression in E. coli
MGSDKIHHHHHHMIRLDNISKQNGHQILFIEASMGVQKGEKVGLVGPNGAGKTTLFRMITGQEQPDDGIVSIDAGMRIGYFSQDVGEMSGQSAVAAVMDGVGPVSALAAEMATLEAAMVDPDQADQLDAVMERYGEVLERFQELDGYALEARAREVLAGLSFSQERMDADVGLLSGGWKMRVALARILLMRPDGMLLDEPSNHLDLESLIWLESFLKNYDGALLMTSHDRAFMNRIIGKVIEIDAGSLITYSGDLDFYDQQRALSEAQRQAQYERQQAMLAKEIKFIEKFKARASHAAQVQSRVKKLDKIERVEAPRRRQTVQFEFQSPPRSGEDVISLRGVHKGYGERPIYQDLDFLVRRKERWAVLGANGAGKSTLLKLVAGDTKPDQGVVNIGASVKMGYFAQHSMDLLDGEETIFESLERSFPQAGQGALRTLAGCFGFSGDDVEKPCRVLSGGEKARLVMAKMLFDPPNLLVLDEPTNHLDMVTKEMLVASLADFEGTMLFVSHDRHFLAALSNRVLELTPEGIHQYGGGYTEYVARTGQEAPGLHPGG	not soluble
MGSDKIHHHHHHMIRREDYQYLRKLNDFRYFSIEQFDKIVGQMEFRKAKKDHILFFEGDKRDKLFLVTSGYFKVEQSDQSGTFMYTDFIRHGTIFPYGGLFTDDYYHFSVVAMTDVTYFYFPVDLFEDYSLENRLQMKHLYSKMSKLLELHELRVRNLITSSASSRVIQSLAILLVEMGKDSDTLPFQLTTTDIAQISGTTRETVSHVLRDLKKQELITIKGKYLTYLDKDYFLQYTK	not soluble
MGSDKIHHHHHHMITHIRVASQQLEQPRFESPKELVSWMGAIQAQEYEMAKWAIGIRLRSSSLEKVNEALYKGDILRTHVMRPTWHFVAAEDIRWMLMLSSERIKAAVMSYAKGHFGKIEKTLFTRYLDQIGKILEGYKSLTKQEVTTELQKSGILPTIDHVNLFLTWGEVEGIVCSGIDKGKKTTYALLDERVPPTRELCREEALARLASRYFQSHSPAQLQDFVWWSGLTATECRLAINLIKTELITETFDSREYFIHQSWKGKNESKPVLRLLPAFDEYLISYKNRTDVLPLEHHPKAFNRFGTFYPVILYNGKIIGNWSRSIKKNTIQIEMDFFEKKPRIPVKLIQQAEAQIDAFYRGLSHRPALQCREK	not soluble
MGSDKIHHHHHHMITHQDLKQLQSLTKVPALSILLPTHRTSPDNKQDPILVKNLVSEATKRLDKEFTSRQLEPLLKQLETLVSEIDYPHTLDGLALYVSHDFAKLYYLPFPVPARVVIDQTFATRDLVYGRHREHRYWVLLLSQASTRLLAGTGETLEEVNDENFPMQMTGPGATTPLPYETDSSYRDDRYRRFFQQVNSALTLYENDSLPLIVGGVERQISFFQEVSQNTQAMSPRGYAYAGTLRGNFDRATIHELTPQVWSIMQSVQEAQQAEALQALDDAMGTQSVVSTIGEVWRLAHEGRGKLLLVEKNYHVPAILTEDGRFELVDQPGGTDVMDDAVDEIIEVVLAKGGKVAIVDDEVLSIYQRIALIFRY	not soluble
MGSDKIHHHHHHMITSDELTENLSPFELSLFLEKKLHEENHNLETLLNAGRGNPNWTAPTPREAFFLLGQFATKETLREGSEQTAGMIQPSFGRTQRFLNFLAENPSKGATFLQEIWTAEHNYFGMDKEMWLDAMLDYVIGDNYPNPVRCLKACEQPIKAYLNQELFSSEAQPFDIFAVEGGTAGICYLFDTLANNYLLEKGDRIALLLPTFAPYLEIPELPRYDFDVVKIKAEQMIIDGKTTYQYSNKEIDKLKDPSIKAVFVVNPSNPTANAMGKPTIEQIKQISAVDNPKLMILTDDVYGTFVPAFRSLFTELPYNTACIYSYSKYFGATGWRVGTIAVSQENIFDQLLKELPVARKMELQARYATLNADTSQINFISRLVADSRDIALNHAAGLSSIQQAMMALFSLYALLKDGQAYKDEVMDICHTREKLLFRTLGIEEPLASLNTAYYCEINFRDWTEKRYGPEFSSYLTKSWTITKVLTSLAEKEKLMLLKADAFGSDKWSVRISLANLATNQYSEVGKRMIRLSEHIKEEWLRQKRQAIK	not soluble
MGSDKIHHHHHHMIVGGLWMHLNEGSTPMDKYIEITAQKSRMYLLPDSSKVWMQPGSSIRFAEDFKKHRNVWLKGNSLFEVHKNMGRKFRVYIDKAFIEVKGTCFLIKQNNPSANEITLFNGSIEFNVESTQHKIEMKPLQELVYNPADAGTQLRQIENIEWQNGRYNFTQFNLEHLTRIINQMYGSRIIISDKVNKNCAFTGSIRYDESLEDVIDKICFSLNLRKKEINHEIIIYN	not soluble
MGSDKIHHHHHHMIVIEDVYKRYKTDHGPGKWILQGVNLTIPRNVNVGLIGSNGAGKSTLLRIIGGIDHPNKGKVERRCRLSWPMGQGGLEPTLTGRQNAKFVCRLHGHQDDLPERLIFIQDFSGLKDAFDEPVNTYSSGMRSRLQFAMSLAFDFDIYISDEVTAAGDAAFRDKAAAAFKGMTNRAGLIMVAHSESTLRQFCEAGILLYQGKAQWFDKIEEAFKAYKDTVQK	not soluble
MGSDKIHHHHHHMIYFLCSFYGEAEGIISYYKLRKEAVHSSFQIFSSEEIKLIISGTGKINAACAVGYIGSLKSKLSKDLFVNVGICGSRSRTVGECVFINKIKDVDTNKEFYPDILLKHDFEEGNLQTFSIPVTTGQVDDVCDMEGSAFFQSASKFFQKHEIALIKIVSDNANNVNVSGELVRNLIKKSMEKINSYIENYKRIFHEKNFLSDVCTGNIEKIVSRLRLTESQSIQLKKAAVAYKIRNGKEFDFEGFLSLEVKIKNDGRKYFSNLIGSMWK	not soluble
MGSDKIHHHHHHMKAISNDKPQGVCATDFASVLGEENAVCLWENIEIGQQKRIQQAVTSGKPPTCIVYPRTQQQLAAVIAKAYSHNWRVLPCGSGSKLSWGGLAKGVDVVVGTERINQLIEHAVGDLTVTVEAGMKFSDLQALLAKSRQFLALDPTAPQSATIGGIVATGDTGSLRQRYGSVRDQLLGVTFVRADGEIAKAGGRVVKNVAGYDLMKLLTGSYGTLGFISQLTFRVYPLSEASGTVVLTGSAEAVSQAADILRGSALTPVQADLLSTKLVSSLGLGEGLGLIARFQSISESVKEQSNRVLEVGQKLGLDGAIFADADEASLWQRLQERIHSTATESVITCKIGVLPTAAVDILTQVGLGLIHISSGLGLLQLEDKNQVLKVREQLRSAGSDGTQANSGFLTILEAPMAVKEQVDVWGYNGNALPLMRRIKEQFDSKNILSPGRFVGGI	not soluble
MGSDKIHHHHHHMKAPLVSIIIPVWNLWELTCACLDSIRAHTPGNAVEVIVVDNGSDDTTATALAPTGEGLFGARFRRIRLETNRGFAVACNLGAAKAQGTYLLLLNNDTVLSPGWLPPLLREFDDEPRTGAAGPLLVYPDSGRVQHCGIAFAPTLQTEHLYANFPATHPAVRARRTLQAITGAAMLLPTALFRQCGGFHEGYKNGCEDLELCCRIREQGLRLAVVPESLVAHHESRTPGRKEHDAANATLLNRRCSGCFGPDLHRHALRDGFAIALTPWLDTYLTLPPGREAALTREHITDFDPGRCWETLQGEPLWHGGYEMLCSILDEAGRHAESAGVRLLQAGFFPTLPGFRQLARSAALSGNDELARQAAEKMQHIGGILEDPEPLVTRARGLVRWARRAGEPAVEALYTGWLTDIGLSADD	not soluble
MGSDKIHHHHHHMKDGQMLTEWPSHLPWLNQSQNDFTFPSDTYLLLYFWSMSCPNCHQFTDKVLQDIKDMNVKVIGVHVPYIEEEKSMEVVLTYALDRGLAIPIVLDQNYEIVTTCHVQGIPSFCLLSQYGQIITKTMGDVSWDKMLKKIAGL	not soluble
MGSDKIHHHHHHMKDINMTVEKGQVAGILGITGCGKTTLLKLLYNGLKNGDRRLIWKGGNYVDAIGRARPNAVYVPQSAPDSLDPVYSVIDQIRKVMQARSVDFDQDLLEKIMSEIGRSPDMLKKKPQALSQGERHIAVVIMALMIRPSLIMMDEPTTSLDAIETLDLLGIIRRFSVQYGISFIISGTSPEVITYASDFVHVMYCGTFVESSQTEDLISNPLHPYTRMIMKMRPSIRTKDLVLDRFIYDCNDYGCPFLNYCEYARDECRSQVSIRRYNDRAGQVRSLAEIMLSAKHVYKTYLEKVSIFKWHENKVIEDFSYDFLSGTRYGIIGVSGSGKTTLASILAGYDRPDSGSIIYSKHPSDGSSIRVRNVFQDTYRFLNPVNTLEWYEKNISAISPDPKLIDKILDAVGLPLERFGSLYIDQLSGGQRQRLAFAMVLSQLPDVLILDEPFSMIDPPNAMVLFSLIRKYLDKSTVIYIDHNIDRVAYLCDHIIAFDKGRIVEEDDVKKIFETQKTEYVEKLIWASEKISSRMKRQP	not soluble
MGSDKIHHHHHHMKDLLNAFENKAPEIVFEWHDAETDATGWAVINSLRGGAAGGGTRMRKGLDKHEVVSLAKTMEIKFAVSGPHIGGAKSGINFDPADPRKNDVLNRWYKAVMPLLKSYYGTGGDLNVCEIKDVIPNTEEYGLWHPQEGIVNGHFHPSEELRIQKICQLRGGVTMPVVNPAYTPDPAKKYLVADLITGFGVSESVRHYYEIKGDSVAGKRVIVQGWGNVGGTAAYYLAANGAKVVGIIDRAAGLVSTEGLTFEQVKELLAKRVGNTLTGDNLLSAEDTQKLVWSVGADVFLPCAASRLVTREQVATLKDNGLGLIACGANVPFRDDNIFYGPTAEYADGVVDVIPDFIANCGMARAFNYLMSSKVDLDESAIFQDVSEVIRNALTESCAAATGKNHLLAASLKTVLHKLMH	not soluble
MGSDKIHHHHHHMKDLSSIVAKFNTQGTITEIKPLGAGLINDTYKVNTQEADAPDYVLQRINHAIFQNVEMLQSNIAAVTGHIRKKLTEAGEADIDRKVLSFLATEEGKTYWFDGESYWRVMVFIPRAKTYETVNPEYSNYAGEAFGNFQAMLADIPETLGETIPDFHNMEFRLKQLRDAVAANAAGRVAEVQYYLDEIEKRADEMCKAERLFREGKLPKRVCHCDTKVNNMMFDEDGKVLCVIDLDTVMPSFIFSDYGDFLRTGANTGDEDDKDLNRVNFNMEIFKAFTKGYLKGAKSFLTPIEIENLPYAAALFPYMQCVRFLADYINGDTYYKIKYPEHNLVRTKAQFKLLQSVEEHTPEMVAFINECLVNG	not soluble
MGSDKIHHHHHHMKDLVYLNYAATSYKKFPATIEALTAYLAENQFMNYGRNAPLLREGLPLLETRQLLADFFQAPSAAQITFTNNATTSLNLALAGILQPGDHVITTMLEHHAVARPLHLLEKERGISVTYVACQKTGLLEVEDIQRAWRTNTKALVMTHASNVLGTILPIEECFQWAQQKGLLTILDAAQTAGFLPIKMTQMAIDVLAFTGHKSLYGLAGIGGLAFSERGAEAVKPLMAGGTGSHSNSFDQPSFLPDKFEAGTLNSLGILSLNSSIKELNKIGLAAIQKHERTLMQNFLNGLSGLPVTILGTKDVAQTVPVVSITLWNQEETIVAQQLAEQYGIMTRAGLHCAPLAHQTAGTLATGTLRFSFGWQTTPEEITWTIHALQELLI	not soluble
MGSDKIHHHHHHMKDNKINILFLSWRDIKCPKSGGAEVFTHEMLKRLDFNKYDITHFSPTFEGAKEKEIIDNVTYIRRGNILSVISEAKKYYKTNKDEIDFVVDQCNTHKFFTPLWVPKKKRIFFIHQLTREIWHINARFPISTLGYLFETPTLRLYKNDYTITVSDSTKKDLIDIGFDRDKVTIFPEGINFKPWDKDSLLKEKDNIFGYIGRFVNYKGIDAAVKAYCILKKDYPNSKLWIIGKKKDDYIEKVLLPILKENNITYGNRGQNRDITFWGFVSEKEKLSLMSKMKALLFPSIREGFGLTVIEAGAVGTPTVVYNSKGLVDAVDKGKAGYLCEENTPENLYYFMKNILENENEYGLKRKNAHDFSLKFNWDSTSKYFDDFINKLNEKSLKK	not soluble
MGSDKIHHHHHHMKDSDILMLAEEGESTSEASARKKALLLGRQLGLASEQEYRPANASIAERAQHRARKLSSQYQANVETIFALALSYTPSDVTGVDLDPDWSHQFFLMAEQIHNRRMQDLWARILSSEIVNPGNFSLRTLALLKQLTHREAQILEKALGMAAKVNSEQRLKLISGYRLSGGIGQYFRKTTSVNLGLSQFGLPYSSILTLVDAGILHSSEFETGLLNNKTPIQFALQGIQMKLTPKSGNLLFSYYRFTPIGDELAQLVQPKPDQEYLKALQLLFAKDFKIE	not soluble
